Test results reported in patent publication US6187552A, “Method for identifying inhibitors of JAK2/cytokine receptor binding” (Pharmacia & Upjohn Company, priority 1998, dated 2001).
Values belong to the compound of their own block, whether it stands above or below them.

Legend:
βc/JAK2 binding = test: Effect of blocking agents, detergents and DTT on the SPA (signal, background); parameters: species or system human
Experimental: (§1) Triplicate reactions were done for each data point. The buffer used in all the assays was 35 mM sodium phosphate, 150 mM NaCl, pH 8.0, 10% glycerol. Biotinylated peptides were allowed to bind to streptavidin-coated SPA beads (Amersham Life Sciences, Arlington Heights, Ill., catalog # RPNQ0006) with either less than saturating peptide or excess peptide. […] Under less than saturating conditions, beads and 40 pmole peptide were added to the assay plate well and incubated for one hour with gentle shaking on a Titer plate shaker (Lab-Line Instruments, Inc., Melrose Park, Ill.) at 600 rpm and not washed. […] The plates were then read on a MicroBeta (Wallac) set to read scintillation due to tritium.

[1] = molecular target: NJAK2 (N-terminal portion of JAK2) (Homo sapiens, UniProt O60674); test: SPA: binding of 3H-NJAK2 (N-terminal JAK2) to βc peptides on streptavidin-coated beads; conditions: less than saturating peptide, 40 pmole per reaction, FIG. 12B
Experimental: (§2) Three different labeling reactions were done using ^3 H-N-succinimidyl propionate (^3 H-NSP, Amersham Life Sciences, Arlington Heights, Ill.). One reaction was done using 0.5 mg of purified JAK2 in 0.1 M borate buffer, pH 8.5, with a reaction volume of 150 μl and an incubation time of one hour on ice with dried 1 mCi of ^3 H-NSP (toluene was removed using a stream of nitrogen). […] Another reaction was done using the buffer 0.1 M sodium phosphate, pH 8.0, and a similar volume as before. One milligram of JAK2 in 1.2 ml of phosphate buffer was incubated for three hours on ice. […] A third reaction was done using 2.5 mg of purified JAK2 in 0.1 m sodium phosphate, pH 8.0, and 2.5 ml volume. It was incubated with 5 mCi of dried ^3 H-NSP on ice for 2 hours. […] All three products were separated from unincorporated label using PD-10 columns (Pharmacia Biotech, Uppsala, Sweden) pre-equilibrated with 20 mM Tris, pH 8.0, 0.15 M NaCl.
as §1
(§3) Either ^3 H-JAK2 or ^3 H-NJAK2 was added to the wells and, after incubation, the signals measured. […] A competition reaction was also done by adding 5 to 10-fold excess unlabeled JAK2 in those reactions.

JAK2 [2] = molecular target: T1, JAK2 (Homo sapiens, UniProt O60674); test: SPA: binding of 3H-JAK2 to βc peptides on streptavidin-coated beads; parameters: NJAK2 = N-terminal 294 residues; conditions: for activity profile in binding 3H-JAK2 (signal): less than saturating peptide, 40 pmole per reaction, FIG. 12A; for overall signals and signal-to-noise ratios, peptide and labeled JAK2 mixed prior to adding beads / activity profile, peptide and labeled JAK2 mixed prior to adding beads: mixed one hour before beads, FIG. 13; for overall signals and signal-to-noise ratios, peptide and labeled JAK2 mixed prior to adding beads: versus peptide bound to bead first; for signal: κ-casein included throughout the assay; for activity of C-terminal deletion peptide in the SPA: excess peptide, κ-casein 1 mg/ml
Experimental: Cells were lysed by dounce homogenization (20 strokes) in 1X phosphate buffered saline (PBS), pH 7.5 at 4 C. […] For some experiments, the JAK2 protein (0.15 mg/ml), aliquoted into 7 equivalent tubes, was then subjected to ultracentrifugation in an Airfuge using an A-110 rotor at an average of 164,000×g for a period of 6 hours at ambient temperature. At zero time, and at each subsequent hour thereafter, a tube of JAK2 was removed for analyses (ELISA, SDS polyacrylamide gel electrophoresis, and Western blotting).
as §2, §1, §3

JAK2 [3] = molecular target: T1, JAK2; test: ELISA binding of JAK2 to immobilized βc peptides; parameters: Y918N clone error corrected to Tyr; conditions: for binding of JAK2 (ELISA): biotinylated peptides on streptavidin plate; for binding of JAK2 (ELISA) / saturation of JAK2 binding at 0.4 μM peptide (ELISA): FIG. 24
Experimental: βc peptides corresponding to the proposed JAK2 binding domain (Table 1) were serially diluted and bound 16 hours at room temperature to streptavidin coated 96-well plates (Boehringer-Mannheim, Indianapolis, Ind.) and blocked at 37° with 1% fetal bovine serum in PBS. JAK2 protein was serially diluted on the plate and allowed to bind for 1 hour at room temperature. Plates were washed between incubations with ELISA wash (PBS with 0.04% TWEEN 20). Detection was via anti-FLAG antibody (10 μg/ml, Kodak, New Haven, Conn.) followed by anti-mouse Ig conjugated to peroxidase (1:5000 dilution, Boehringer Mannheim) and 1 mg/ml 2,2'-azinobis(3-ethylbenzthiazolinesulfonic acid) (Sigma), 0.003% H2 O2, 28 mM citric acid, 44 mM Na2 HPO4.
The ELISA assay worked best when the biotinylated βc peptides were immobilized on a streptavidin 96-well plate and the JAK2 was allowed to bind. A dual titration of βc peptides vs. JAK2 was performed (FIG. 24). Peptide 1 [SEQ ID NO:11] (FIG. 24 A) and peptide 2 [SEQ ID NO:12] […] Because 0.4 μM peptide was calculated to saturate the number of biotin binding sites in each well, it was expected that the amount of JAK2 binding should saturate at this quantity of peptide. […] (FIGS. 24 C and D) but peptides 5 and 6 [SEQ ID NOS:15 and 16]

JAK2 [4] = molecular target: T1, JAK2; test: SPA competition: soluble peptide/streptavidin against peptide 4-coated SPA beads for binding 3H-JAK2; parameters: Y918N clone error corrected to Tyr
Excerpt: FIGS. 20 A and B illustrate a test of the ability of streptavidin-peptide 4 complexes to compete for binding of 3H-JAK2 to peptide 4-coated SPA beads. For A, #0 is a beads only control. In all reactions with peptide bound to beads, excess peptide 4 [SEQ ID NO:14] was bound to beads before adding soluble samples. The reaction in #1 is peptide 4 [SEQ ID NO:14] bound to beads only, no added peptide 4 [SEQ ID NO:14] or streptavidin. #2 contained soluble peptide 4/streptavidin at a ratio of 1:1. #3 contained soluble peptide 4/streptavidin at a ratio of 4:1. #4 contained 20 μM peptide 4 added as soluble peptide 4. #5 contained 20 μM streptavidin. […] For B, 0 is a beads only control. In all reactions with peptide bound to beads, excess peptide 4 was bound to beads in the presence of 1 mg/ml κ-casein (as described in Materials and Methods of Example 8) before adding soluble samples. The reaction in #1 is peptide 4 bound to beads only, no added peptide 4 or streptavidin. #2 contained peptide 1/streptavidin at a ratio of 4:1 and #3 contained peptide 4/streptavidin at a ratio of 4:1.
The assay was set up in 96-well plates (Wallac, catalog # 1450-401), Turku, Finland, using a total assay volume of 200, μl/well. Triplicate reactions were done for each data point. The buffer used in all the assays was 35 mM sodium phosphate, 150 mM NaCl, pH 8.0, 10% glycerol. Biotinylated peptides were allowed to bind to streptavidin-coated SPA beads (Amersham Life Sciences, Arlington Heights, Ill., catalog # RPNQ0006) with either less than saturating peptide or excess peptide. For 400 μg SPA beads used per reaction, there was the capacity to bind 49 pmole of biotin (given the binding capacity of 121 pmole biotin/mg bead). Under less than saturating conditions, beads and 40 pmole peptide were added to the assay plate well and incubated for one hour with gentle shaking on a Titer plate shaker (Lab-Line Instruments, Inc., Melrose Park, Ill.) at 600 rpm and not washed. Under conditions of excess peptide, beads and peptide (80 pmole of peptide per 400 μg of bead) were mixed in batch with or without 1 mg/ml K-casein added as described in Results and Discussion, incubated for one hour with rotation, washed three times with buffer and aliquotted into wells. ^3 H-JAK2 or ^3 H-NJAK2 and any other components to be tested were added and the reactions were mixed and incubated for one hour in the dark at room temperature. The plates were then read on a MicroBeta (Wallac) set to read scintillation due to tritium.
The ability of excess peptide 4 [SEQ ID NO: 14] to compete for binding of JAK2 was tested. Biotinylated peptide 4 was bound to streptavidin in solution to mimic the conditions of the peptide 4 bound to the beads. It was used at a ratio of 1:1 (peptide 4: streptavidin) and at a ratio of 4:1 to see whether having multiple peptides on one streptavidin molecule might do a better job of binding JAK2 and therefore of competing. […] This could be due to the free streptavidin pulling some of the peptide 4 [SEQ ID NO: 14] off the bead. […] Another SPA was done using peptide 4 [SEQ ID NO:14] or peptide 1 [SEQ ID NO:11] bound to streptavidin at a ratio of 4:1. […] The results are shown in panel B of FIG. 20.

Sequence of NJAK2 (N-terminal portion of JAK2) (O60674 1-294 S277G): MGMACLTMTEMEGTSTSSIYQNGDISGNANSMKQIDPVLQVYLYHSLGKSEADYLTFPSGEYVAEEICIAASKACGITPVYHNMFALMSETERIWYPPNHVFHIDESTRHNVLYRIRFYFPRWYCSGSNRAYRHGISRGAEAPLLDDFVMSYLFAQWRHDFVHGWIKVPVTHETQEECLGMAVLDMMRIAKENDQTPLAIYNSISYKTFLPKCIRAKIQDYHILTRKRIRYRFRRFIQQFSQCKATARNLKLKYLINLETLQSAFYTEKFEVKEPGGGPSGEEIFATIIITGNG
T1 sequence (O60674 3-1132): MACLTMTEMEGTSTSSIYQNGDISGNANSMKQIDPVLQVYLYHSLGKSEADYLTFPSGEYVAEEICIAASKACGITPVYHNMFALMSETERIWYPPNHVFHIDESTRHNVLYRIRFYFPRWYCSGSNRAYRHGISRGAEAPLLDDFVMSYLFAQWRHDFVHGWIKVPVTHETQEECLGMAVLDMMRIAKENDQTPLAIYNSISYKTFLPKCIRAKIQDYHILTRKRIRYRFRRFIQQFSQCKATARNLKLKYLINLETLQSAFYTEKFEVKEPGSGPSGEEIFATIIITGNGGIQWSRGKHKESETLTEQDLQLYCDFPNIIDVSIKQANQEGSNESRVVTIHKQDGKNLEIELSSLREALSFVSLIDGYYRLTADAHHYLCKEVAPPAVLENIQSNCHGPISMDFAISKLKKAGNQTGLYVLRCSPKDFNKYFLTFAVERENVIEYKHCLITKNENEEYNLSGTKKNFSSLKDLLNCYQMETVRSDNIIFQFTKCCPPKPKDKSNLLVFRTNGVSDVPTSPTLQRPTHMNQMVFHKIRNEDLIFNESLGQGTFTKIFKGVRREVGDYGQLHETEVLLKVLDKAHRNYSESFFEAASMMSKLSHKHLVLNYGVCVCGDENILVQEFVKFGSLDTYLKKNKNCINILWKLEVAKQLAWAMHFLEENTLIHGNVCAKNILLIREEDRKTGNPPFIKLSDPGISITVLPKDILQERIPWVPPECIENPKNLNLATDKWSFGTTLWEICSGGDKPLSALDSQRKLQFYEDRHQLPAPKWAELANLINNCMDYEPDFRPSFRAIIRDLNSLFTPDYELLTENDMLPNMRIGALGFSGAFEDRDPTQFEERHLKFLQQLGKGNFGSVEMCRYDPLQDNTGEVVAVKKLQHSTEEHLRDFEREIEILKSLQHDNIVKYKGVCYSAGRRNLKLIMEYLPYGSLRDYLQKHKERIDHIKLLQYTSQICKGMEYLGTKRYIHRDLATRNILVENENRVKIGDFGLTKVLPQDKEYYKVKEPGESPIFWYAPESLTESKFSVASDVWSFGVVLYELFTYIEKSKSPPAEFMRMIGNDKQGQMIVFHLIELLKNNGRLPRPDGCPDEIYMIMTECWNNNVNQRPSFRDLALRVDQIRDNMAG

additional effect of dithiothreitol (βc/JAK2 binding; 0.1 or 1 mM DTT with Brij 35 0.0025%, FIG. 19B): no obvious additional effect
Compound: O[C@H](CS)[C@H](O)CS (racemic) [dithiothreitol]

Compound: EKIPNPSKSHLFQNGSAELWP [peptide 1, βc peptide, N-terminal truncation]
activity profile in binding 3H-NJAK2 (signal) [1]: gave no signal
activity profile in binding 3H-JAK2 (signal) (JAK2 [2]): gave no signal
overall signals and signal-to-noise ratios, peptide and labeled JAK2 mixed prior to adding beads (JAK2 [2]): lower overall signals and signal-to-noise ratios
activity profile, peptide and labeled JAK2 mixed prior to adding beads (JAK2 [2]): same activity profile
signal (JAK2 [2]): very little signal
binding of JAK2 (ELISA) (JAK2 [3]): no binding activity
competition for binding of JAK2 (JAK2 [4]; peptide/streptavidin 4:1, beads with 1 mg/ml κ-casein, FIG. 20B): decrease in signal

saturation of JAK2 binding at 0.4 μM peptide (ELISA) (JAK2 [3]): did not show saturation
Compound: FCGIYGYRLRRKWEEKIPNPSKSHLFQNGSAELWP [peptide 5, βc peptide, N-terminal truncation]
activity profile in binding 3H-NJAK2 (signal) [1]: peptide 4>peptide 3>peptide 5>peptide 6>peptides 1 and 2
activity profile in binding 3H-JAK2 (signal) (JAK2 [2]): peptide 4>peptide 3>peptide 5>peptide 6>peptides 1 and 2

activity of C-terminal deletion peptide in the SPA (JAK2 [2]; 10 nM labeled JAK2, FIG. 21B): as active as peptide 4
Compound: GIYGYRLRRKWEE [CTD-5, C-terminal deletion of peptide 4]

activity of C-terminal deletion peptide in the SPA (JAK2 [2]; 32.5 nM labeled JAK2, FIG. 21A): slight decrease in the activity
Compound: GIYGYRLRRKWEEKIPN [CTD-4, C-terminal deletion of peptide 4]

activity profile, peptide and labeled JAK2 mixed prior to adding beads (JAK2 [2]): same activity profile
signal (JAK2 [2]): very little signal
saturation of JAK2 binding at 0.4 μM peptide (ELISA) (JAK2 [3]): did not show saturation
Compound: LALRFCGIYGYRLRRKWEEKIPNPSKSHLFQNGSAELWP [peptide 6, βc peptide]
activity profile in binding 3H-NJAK2 (signal) [1]: peptide 4>peptide 3>peptide 5>peptide 6>peptides 1 and 2
activity profile in binding 3H-JAK2 (signal) (JAK2 [2]): peptide 4>peptide 3>peptide 5>peptide 6>peptides 1 and 2
overall signals and signal-to-noise ratios, peptide and labeled JAK2 mixed prior to adding beads (JAK2 [2]): lower overall signals and signal-to-noise ratios

activity profile in binding 3H-NJAK2 (signal) [1]: gave no signal
activity profile in binding 3H-JAK2 (signal) (JAK2 [2]): gave no signal
binding of JAK2 (ELISA) (JAK2 [3]): no binding activity
Compound: RKWEEKIPNPSKSHLFQNGSAELWP [peptide 2, βc peptide, N-terminal truncation]

suitability in the SPA (JAK2 [2]): two most optimal
suitability for the ELISA (JAK2 [3]): appear optimal
Compound: YRLRRKWEEKIPNPSKSHLFQNGSAELWP [peptide 3, βc peptide, N-terminal truncation]
activity profile in binding 3H-NJAK2 (signal) [1]: peptide 4>peptide 3>peptide 5>peptide 6>peptides 1 and 2
activity profile in binding 3H-JAK2 (signal) (JAK2 [2]): peptide 4>peptide 3>peptide 5>peptide 6>peptides 1 and 2

Compound: bovine serum albumin [BSA]
effect on background (βc/JAK2 binding; BSA 0.1 or 0.5 mg/ml, FIG. 16): no effect
effect on signal (βc/JAK2 binding; BSA 0.1 or 0.5 mg/ml, FIG. 16): slight positive effect

Compound: streptavidin [reference compound]
signal with streptavidin alone (JAK2 [4]; 20 μM streptavidin, FIG. 20A): decreases the signal to a greater extent than streptavidin with peptide 4

effect on signal and background (βc/JAK2 binding; κ-casein during binding of excess peptide to beads, washed away, FIG. 15): decreases both signal and background
Compound: κ-casein
